In patent publication EP4477673A1, “IMMUNOCONJUGATE AND USE THEREOF” (priority 2022, dated 2023):
Changes are numbered by the printed parent chain. In names and notes the source's numbering stands. Like-named read-outs stand apart in the source and are kept apart here.

T1: human IL-2Rβ/γ receptor heterodimer protein (Acrosystem, ILG-H5283) (human, UniProt P14784 27-239; P31785 23-262, limits assumed)
T1 sequence (looked up) 1: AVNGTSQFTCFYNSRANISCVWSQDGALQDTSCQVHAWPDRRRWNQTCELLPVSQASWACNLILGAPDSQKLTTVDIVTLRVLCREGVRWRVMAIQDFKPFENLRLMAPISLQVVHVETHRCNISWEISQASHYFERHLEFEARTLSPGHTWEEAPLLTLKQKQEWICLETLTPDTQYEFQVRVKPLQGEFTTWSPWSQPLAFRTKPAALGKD
T1 sequence (looked up) 2: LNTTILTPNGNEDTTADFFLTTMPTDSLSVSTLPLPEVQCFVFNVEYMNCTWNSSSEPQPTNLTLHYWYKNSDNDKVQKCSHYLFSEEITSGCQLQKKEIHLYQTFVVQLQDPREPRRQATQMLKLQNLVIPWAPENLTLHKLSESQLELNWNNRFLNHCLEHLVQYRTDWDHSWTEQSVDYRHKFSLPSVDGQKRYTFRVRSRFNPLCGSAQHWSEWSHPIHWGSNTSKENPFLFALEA

T2: IL-2Rβ/γ on M07e cells (human, UniProt P14784 27-551; P31785 23-369)
T2 sequence (looked up) 1: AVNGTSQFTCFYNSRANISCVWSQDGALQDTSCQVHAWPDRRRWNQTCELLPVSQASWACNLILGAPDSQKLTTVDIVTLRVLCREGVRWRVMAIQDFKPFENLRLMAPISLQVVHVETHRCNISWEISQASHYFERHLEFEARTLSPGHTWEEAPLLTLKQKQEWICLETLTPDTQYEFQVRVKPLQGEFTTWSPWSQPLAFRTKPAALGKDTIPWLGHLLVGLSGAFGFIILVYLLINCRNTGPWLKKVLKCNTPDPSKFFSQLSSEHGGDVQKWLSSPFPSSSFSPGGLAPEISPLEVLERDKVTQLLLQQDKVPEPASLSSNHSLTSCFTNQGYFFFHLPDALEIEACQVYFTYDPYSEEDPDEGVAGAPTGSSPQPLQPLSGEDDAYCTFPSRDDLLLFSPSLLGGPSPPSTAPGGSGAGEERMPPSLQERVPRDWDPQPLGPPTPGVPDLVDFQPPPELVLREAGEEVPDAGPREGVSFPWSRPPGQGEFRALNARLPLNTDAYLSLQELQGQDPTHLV
T2 sequence (looked up) 2: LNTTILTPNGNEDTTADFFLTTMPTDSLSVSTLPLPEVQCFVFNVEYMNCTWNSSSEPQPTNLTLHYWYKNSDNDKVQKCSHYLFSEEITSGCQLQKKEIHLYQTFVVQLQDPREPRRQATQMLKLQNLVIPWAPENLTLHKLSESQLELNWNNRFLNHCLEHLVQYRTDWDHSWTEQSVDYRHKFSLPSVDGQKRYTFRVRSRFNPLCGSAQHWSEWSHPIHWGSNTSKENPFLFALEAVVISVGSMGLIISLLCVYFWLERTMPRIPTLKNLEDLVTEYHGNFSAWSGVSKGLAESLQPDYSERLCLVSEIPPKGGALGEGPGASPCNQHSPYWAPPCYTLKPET

T3: human IL-2Rα receptor protein (Sino Biological, 10165-H08H) (human, UniProt P01589 22-213)
T3 construct: also called CD25
T3 sequence (looked up): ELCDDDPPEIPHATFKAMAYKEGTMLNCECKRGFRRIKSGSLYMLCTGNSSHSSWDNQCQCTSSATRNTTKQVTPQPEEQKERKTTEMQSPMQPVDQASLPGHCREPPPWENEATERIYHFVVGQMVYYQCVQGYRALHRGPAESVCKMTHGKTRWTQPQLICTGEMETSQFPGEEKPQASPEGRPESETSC

B1: A17m0902_hIgG4 (antibody, V domains shown)
VH: EVQLVESGGGLVQPGGSLRLSCAASGLTFSDYSMSWYRQAPGKGRELVAIISGSGVITHYVDSVKGRFTISRDNAKNTLYLQMRSLRAEDTAVYYCRAVSDWEDYWGQGTQVTVSS
notes: VHH-Fc antibody; not shown: human IgG4 Fc with hinge region and S228P (EU)
B2: A-N88D (Fc fusion)
chain (part 1 of 2): B1 VH
chain (part 2 of 2): GGGGSGGGGSGGGGSAPASSSTKKTQLQLEHLLLDLQMILQGISNYKNPKLTRMLTAKFYMPKKATELKHLQCLEEELKPLEEVLQGAQSKNFHLRPRDLISDINVIVLELKGSETTFMCEYADETATIVEFLNRWITFAQSIISTLT
chain: B1 VH
notes: also called PD-1-IL-2v (N88D); not shown: IgG1 hinge (C220S) + Fc Knob chain (L234A, L235A, S354C, T366W, EU); D356/L358 or E356/M358 ver; IgG1 hinge (C220S) + Fc Hole chain (L234A, L235A, Y349C, T366S, L368A, Y407V; may have H435R, Y436F; EU)
B3: A-D20A (Fc fusion)
chain (part 1 of 2): B1 VH
chain (part 2 of 2): B2 chain (part 2 of 2) with D35A, D103N
chain: B1 VH
notes: also called PD-1-IL-2v (D20A); not shown: IgG1 hinge (C220S) + Fc Knob chain (L234A, L235A, S354C, T366W, EU); D356/L358 or E356/M358 ver; IgG1 hinge (C220S) + Fc Hole chain (L234A, L235A, Y349C, T366S, L368A, Y407V; may have H435R, Y436F; EU)

What was measured:
[1] = molecular target: T4, Human PD-1 antigen protein (Sino Biological, 10377-H08H) (human, UniProt Q15116 25-167); assay: SPR Biacore 8K, antibody captured by anti-human IgG (Fc), PD-1 as analyte
T4 sequence (Q15116 25-167 limits assumed): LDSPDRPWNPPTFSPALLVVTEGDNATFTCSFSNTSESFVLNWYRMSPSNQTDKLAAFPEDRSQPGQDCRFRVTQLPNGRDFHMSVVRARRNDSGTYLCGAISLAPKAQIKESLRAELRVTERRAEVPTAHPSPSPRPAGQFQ

[2] = molecular target: T5, cynomolgus monkey PD-1 antigen protein (Sino Biological, 90311-C08H) (cynomolgus monkey, UniProt B0LAJ3 25-170); assay: SPR Biacore 8K, antibody captured by anti-human IgG (Fc), cynomolgus PD-1 as analyte
T5 construct: not shown: Tag of the vendor's construct (Sino Biological 90311-C08H, probably a C-terminal His tag)
T5 sequence (B0LAJ3 entry or part of it C08H C08H limits assumed, form in doubt): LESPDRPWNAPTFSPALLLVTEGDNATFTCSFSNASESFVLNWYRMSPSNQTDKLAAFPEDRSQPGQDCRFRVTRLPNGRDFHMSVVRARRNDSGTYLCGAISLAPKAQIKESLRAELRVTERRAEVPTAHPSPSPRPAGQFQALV

[3] = molecular target: T6, human PD-1 (human, UniProt Q15116 25-288); assay: cell-based or functional assay
T6 sequence (Q15116 25-288 limits assumed): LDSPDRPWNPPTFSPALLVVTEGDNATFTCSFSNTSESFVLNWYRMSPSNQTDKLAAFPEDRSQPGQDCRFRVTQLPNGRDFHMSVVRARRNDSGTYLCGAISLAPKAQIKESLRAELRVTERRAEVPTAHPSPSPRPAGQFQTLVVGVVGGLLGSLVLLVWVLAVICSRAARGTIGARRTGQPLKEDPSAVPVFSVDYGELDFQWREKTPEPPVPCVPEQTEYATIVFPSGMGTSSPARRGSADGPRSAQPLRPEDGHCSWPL

[4] = molecular target: T1, human IL-2Rβ/γ receptor heterodimer …; assay: SPR Biacore 8K; affinity for human IL-2Rβ/γ against A-PC
[5] = molecular target: T6, human PD-1; assay: cell-based or functional assay; remark: listed apart in the source
[6] = molecular target: T4, Human PD-1 antigen protein (Sino …); assay: SPR Biacore 8K, fusion protein captured by anti-human IgG (Fc), human PD-1 as analyte
[7] = molecular target: T6, human PD-1; assay: cell-based or functional assay; remark: listed apart in the source
[8] = molecular target: T2, IL-2Rβ/γ on M07e cells; assay: cell-based or functional assay
[9] = molecular target: T3, human IL-2Rα receptor protein (Sino …); assay: SPR Biacore 8K, fusion protein captured by anti-human IgG (Fc), IL-2Rα as analyte
[10] = molecular target: T6, human PD-1; assay: cell-based or functional assay; remark: listed apart in the source
[11] = molecular target: T1, human IL-2Rβ/γ receptor heterodimer …; assay: SPR Biacore 8K, fusion protein captured by anti-human IgG (Fc), human IL-2Rβ/γ heterodimer as analyte

Row | Binder | fold lower affinity than A-PC [4] | Kd [6] | koff [6] | kon [6] | M07e-hPD-1 cell proliferation activity (%) at 0.0001 nM [7] | M07e-hPD-1 cell proliferation activity (%) at 0.001 nM [7] | M07e-hPD-1 cell proliferation activity (%) at 0.01 nM [7] | M07e-hPD-1 cell proliferation activity (%) at 0.1 nM [7] | M07e-hPD-1 cell proliferation activity (%) at 1 nM [7] | M07e-hPD-1 cell proliferation activity (%) at 10 nM [7] | M07e-hPD-1 cell proliferation activity (%) at 100 nM [7] | M07e-hPD-1 cell proliferation activity (%) at 1000 nM [7] | M07e cell proliferation activity (%) at 0.46 nM [8] | M07e cell proliferation activity (%) at 1.4 nM [8] | M07e cell proliferation activity (%) at 4.1 nM [8] | M07e cell proliferation activity (%) at 12 nM [8] | M07e cell proliferation activity (%) at 37 nM [8] | M07e cell proliferation activity (%) at 111 nM [8] | M07e cell proliferation activity (%) at 333 nM [8] | M07e cell proliferation activity (%) at 1000 nM [8] | other results
1 | B1 |  |  |  |  |  |  |  |  |  |  |  |  |  |  |  |  |  |  |  |  | Kd [1]: 6.09 nM; koff [1]: 0.00177 s⁻¹; kon [1]: 291000 M⁻¹ s⁻¹; Kd [2]: 3.28 nM; koff [2]: 0.00108 s⁻¹; kon [2]: 328000 M⁻¹ s⁻¹; IC50, PD-1/PD-L1 NFAT reporter gene system [3]: 0.435 nM
2 | B2 | ~13 fold | 17.6 nM | 0.00175 s⁻¹ | 99800 M⁻¹ s⁻¹ | 2.8% | 3.3% | 18.1% | 32.1% | 41.8% | 45% | 61.1% | 66.9% | -1.7% | -1.1% | -1.5% | -1.9% | -2.8% | -1.8% | 0.2% | 14.6% | M07e-hPD-1 cell proliferation ratio (%) at 0.0001 nM [5]: 5.2%; M07e-hPD-1 cell proliferation ratio (%) at 0.001 nM [5]: 4.4%; M07e-hPD-1 cell proliferation ratio (%) at 0.01 nM [5]: 13.4%; M07e-hPD-1 cell proliferation ratio (%) at 0.1 nM [5]: 30.8%; M07e-hPD-1 cell proliferation ratio (%) at 1 nM [5]: 36%; M07e-hPD-1 cell proliferation ratio (%) at 10 nM [5]: 35.5%; M07e-hPD-1 cell proliferation ratio (%) at 100 nM [5]: 41.1%; M07e-hPD-1 cell proliferation ratio (%) at 1000 nM [5]: 55.4%; binding result [9]: no binding; M07e-hPD-1 cell proliferation ratio (%) at 0.0001 nM [10]: 0.8%; M07e-hPD-1 cell proliferation ratio (%) at 0.001 nM [10]: 0%; M07e-hPD-1 cell proliferation ratio (%) at 0.01 nM [10]: 4.8%; M07e-hPD-1 cell proliferation ratio (%) at 0.1 nM [10]: 18.3%; M07e-hPD-1 cell proliferation ratio (%) at 1 nM [10]: 21.3%; M07e-hPD-1 cell proliferation ratio (%) at 10 nM [10]: 25.2%; M07e-hPD-1 cell proliferation ratio (%) at 100 nM [10]: 31.1%; M07e-hPD-1 cell proliferation ratio (%) at 1000 nM [10]: 45.5%; Kd [11]: 3.38 nM; koff [11]: 0.000215 s⁻¹; kon [11]: 63700 M⁻¹ s⁻¹
3 | B3 | ~63 fold | 18.5 nM | 0.00168 s⁻¹ | 90600 M⁻¹ s⁻¹ | 2.3% | 2.9% | 11.4% | 24.2% | 28.5% | 30.2% | 32% | 39.2% | -3% | -2.6% | -1.6% | -3% | -3.7% | -2.4% | -1.9% | 0.6% | binding result [9]: no binding; M07e-hPD-1 cell proliferation ratio (%) at 0.0001 nM [10]: 0.6%; M07e-hPD-1 cell proliferation ratio (%) at 0.001 nM [10]: -0.3%; M07e-hPD-1 cell proliferation ratio (%) at 0.01 nM [10]: 2.6%; M07e-hPD-1 cell proliferation ratio (%) at 0.1 nM [10]: 8.4%; M07e-hPD-1 cell proliferation ratio (%) at 1 nM [10]: 10.8%; M07e-hPD-1 cell proliferation ratio (%) at 10 nM [10]: 10.8%; M07e-hPD-1 cell proliferation ratio (%) at 100 nM [10]: 13.5%; M07e-hPD-1 cell proliferation ratio (%) at 1000 nM [10]: 15.4%; Kd [11]: 16 nM; koff [11]: 0.000681 s⁻¹; kon [11]: 42700 M⁻¹ s⁻¹
